The RNAGym collection of RNA variant scans (doi:10.1073/pnas.2313332121)

B1: TPR t1 (parent)
chain: GACCAAUCUGCCCUCAGAGCUCGAGAACAUCUUCGGAUGCAGAGGAGGCAGGCUUCGGUGGCGCGAUAGCGCCAACGUCCUCAACCUCCAAUGCAUCCCACCACAUGAUGAUGCCUGAAGAGCCUUGGUUUUUUG

Variants of: B1
Experiment: polymerase ribozyme fitness, log enrichment relative to wild type (log ratio); higher = more active; in vitro selection for triplet polymerase activity
Summary of the method: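 To select mutant libraries of each subunit of a heterodimeric triplet polymerase ribozyme, built by PCR and transcribed, each was annealed with a biotinylated primer, partner subunit and triplets, then incubated frozen at −7 °C. Extended constructs were gel-excised, captured on streptavidin beads and amplified by RT-PCR, in one round carried out in triplicate. Illumina sequencing of input and output libraries kept genotypes with ≥10 input reads and ≥1 read per output. Fitness is the base-2 logarithm of genotype enrichment relative to wild-type enrichment, from inverse-variance-weighted replicate averages.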

First: G42U G63A G93U
Second: G44C C53G
The “polymerase ribozyme fitness (log ratio)” value of the first is lower: -3.94 for the first, -1.05 for the second.

Going from G42U C53U to G42U C53G, the “polymerase ribozyme fitness (log ratio)” value rises from -1.85 to -1.45.

Compared with G42U G63A C89U, G42U U59A G69U is higher in “polymerase ribozyme fitness (log ratio)” value: -3.28 for the first, -0.413 for the second.

Compared with A43U C49A C89U A90C U133G, G42A A121U is higher in “polymerase ribozyme fitness (log ratio)” value: -1.26 for the first, 0.623 for the second.

Compared with A43U G44A C76G A111C, G42A G45U is lower in “polymerase ribozyme fitness (log ratio)” value: -2.36 for the first, -2.62 for the second.

Compared with G42A C124A, G42C C72G is lower in “polymerase ribozyme fitness (log ratio)” value: -0.186 for the first, -1.76 for the second.

Going from G42C C72A to G42A C85G C86G U129C, the “polymerase ribozyme fitness (log ratio)” value falls from -1.16 to -4.79.

Compared with G42C C56G C72A G77C A100U U132A, G44A A121G is higher in “polymerase ribozyme fitness (log ratio)” value: -3.99 for the first, 1.53 for the second.

Compared with A43U A74C, G44A G61C is lower in “polymerase ribozyme fitness (log ratio)” value: -1.55 for the first, -3.11 for the second.

Compared with A43G G60C C73A C88A, A43G G69A is lower in “polymerase ribozyme fitness (log ratio)” value: -3.87 for the first, -6.04 for the second.

Going from A43U A46G U96G U112A G128A to G44A G71C U125A U129C, the “polymerase ribozyme fitness (log ratio)” value falls from -3.6 to -4.8.

Compared with G44A G122A G128C, G42A U55A C82G is higher in “polymerase ribozyme fitness (log ratio)” value: -3.84 for the first, -2.94 for the second.

Compared with G42C G69U C70G, A43U C49G is lower in “polymerase ribozyme fitness (log ratio)” value: -1.55 for the first, -3.61 for the second.

G42A C82A U87A G93C C124G and A41U U130C are within 0.2 log units of each other in “polymerase ribozyme fitness (log ratio)” value: -1.42 for the first, -1.35 for the second.

First: G42C G44U A74C C99A C123G
Second: G42U C73A U106C
The “polymerase ribozyme fitness (log ratio)” value of the first is lower: -6.31 for the first, -1.97 for the second.

Going from A43U G77U C88G to A43U G60C C82G, the “polymerase ribozyme fitness (log ratio)” value falls from -2.17 to -4.23.

First: A43C G48U U54A G77U G120A G135A
Second: G42U G58C U87C G120A C123G U125A
The “polymerase ribozyme fitness (log ratio)” value of the first is lower: -2.07 for the first, 0.38 for the second.

First: G44A C72G C79A A83U U112G G122A U132C
Second: A43U C73A
The “polymerase ribozyme fitness (log ratio)” value of the first is lower: -6.81 for the first, -1.5 for the second.

First: A43U C73U
Second: A43U C73G
The “polymerase ribozyme fitness (log ratio)” value of the first is higher: -0.963 for the first, -2.69 for the second.

Compared with G44C C70G, G42U A43U G63C U78C is higher in “polymerase ribozyme fitness (log ratio)” value: -3.8 for the first, -3 for the second.

G44A G52U G63U U87A and G44A C101A U109A are within 0.2 log units of each other in “polymerase ribozyme fitness (log ratio)” value: -5.6 for the first, -5.41 for the second.

Going from G44A C89U C123U C124U to A41U U129A, the “polymerase ribozyme fitness (log ratio)” value falls from 1.33 to -2.58.

Going from G42C C49U C79A C102G G120A to A43C U112A G113C, the “polymerase ribozyme fitness (log ratio)” value rises from -7.51 to -1.28.

Compared with G42A C56U C80U, G42U G47U G120U is higher in “polymerase ribozyme fitness (log ratio)” value: -3.08 for the first, -1.57 for the second.

Going from G42U A84G to G42A C72A C104A U130C, the “polymerase ribozyme fitness (log ratio)” value falls from -3.57 to -5.17.

Going from G44A A50C G63A C85A to G42C C56U U81A C124G U132A, the “polymerase ribozyme fitness (log ratio)” value rises from -4.52 to -0.851.

Compared with G44C C64U A111G U133A, A43G A103C A119G A121G G122U G135U is lower in “polymerase ribozyme fitness (log ratio)” value: -0.585 for the first, -4.67 for the second.

Going from G42C A50C A105G to G42A G110A, the “polymerase ribozyme fitness (log ratio)” value rises from -5.66 to -2.55.

Compared with A43U G63C, A43U G63A is lower in “polymerase ribozyme fitness (log ratio)” value: -2.12 for the first, -2.51 for the second.

First: G42A C88A A121U
Second: A43C G44C
The “polymerase ribozyme fitness (log ratio)” value of the first is higher: 0.406 for the first, -1.05 for the second.

Compared with G42C G110C, A43C C115U is higher in “polymerase ribozyme fitness (log ratio)” value: -6.03 for the first, -3.33 for the second.

First: G42C G61A A121C U133G
Second: G44A G77A U106C G117A
The “polymerase ribozyme fitness (log ratio)” value of the first is higher: 0.579 for the first, -3.03 for the second.

Going from A43U G44A G61C A84C A90U C102U C123U to A43G A46U G63U U87A U92G G120C U130C, the “polymerase ribozyme fitness (log ratio)” value falls from -4.59 to -6.

Compared with G42A C62U A84C, G42A A74U A119G is higher in “polymerase ribozyme fitness (log ratio)” value: -3.09 for the first, -1.81 for the second.

G42A C53U and G42A C53G are within 0.2 log units of each other in “polymerase ribozyme fitness (log ratio)” value: -2.41 for the first, -2.5 for the second.

First: G44A U55C U81A
Second: A43G C53A C89G C97G C123G
The “polymerase ribozyme fitness (log ratio)” value of the first is higher: -2.83 for the first, -5.57 for the second.

Compared with G42A U54G A103G U109A G117C, G44A G93U C124G is higher in “polymerase ribozyme fitness (log ratio)” value: -6.58 for the first, 0.0379 for the second.

Compared with G44A U78C, G42A U55C A95C U109A is lower in “polymerase ribozyme fitness (log ratio)” value: -1.33 for the first, -6.59 for the second.

First: A43G C49A
Second: G44A A46G G52A C123A
The “polymerase ribozyme fitness (log ratio)” value of the first is lower: -2.37 for the first, -1.71 for the second.

First: G44C C53G C73U C82U C99G C124G
Second: A43C C94U
The “polymerase ribozyme fitness (log ratio)” value of the first is lower: -7.17 for the first, -2.66 for the second.

Compared with A43C C94G, G42U G57U C85A is higher in “polymerase ribozyme fitness (log ratio)” value: -4.54 for the first, -2.51 for the second.

For G44C A74U, the “polymerase ribozyme fitness (log ratio)” value was -1.2.
